Results: US20230192765A1, “PEPTIDES TARGETING SHP2 AND USES THEREOF” (UNIVERSITÀ DEGLI STUDI DI ROMA "TOR VERGATA", priority 2020, published 2023)
Values belong to the molecule of their own block, whether it stands above or below them. [ ]: non-standard residue; d: D form. CF = 5,6-carboxyfluorescein, N-terminal label; pY = N[C@@H](Cc1ccc(OP(=O)(O)O)cc1)C(=O)O

What was measured:
[1] = biological target: N-SH2 domain of SHP2 (residues 2-111), recombinant (human) (UniProt Q06124); assay: fluorescence anisotropy direct binding, labelled peptide titrated with protein
[2] = biological target: C-SH2 domain of SHP2 (residues 109-217), recombinant (human) (UniProt Q06124); assay: fluorescence anisotropy direct binding
[3] = biological target: C-SH2 domain of SHP2 (residues 109-217), recombinant (human) (UniProt Q06124); assay: fluorescence anisotropy direct binding, labelled peptide titrated with protein
N-SH2 domain of SHP2 [4] = biological target: T1, N-SH2 domain of SHP2 (Homo sapiens, UniProt Q06124); assay: Fluorescence anisotropy direct binding assay, N-SH2 domain; conditions: N-SH2 domain; direct binding
T1 construct: constructs of the N-SH2 (residues 2-111), C-SH2 (109-217) and PTP (212-528) domains; His6 (esaHis); made in house; host or cells: E. coli (DE3) Rosetta2
T1 sequence (Q06124 2-111): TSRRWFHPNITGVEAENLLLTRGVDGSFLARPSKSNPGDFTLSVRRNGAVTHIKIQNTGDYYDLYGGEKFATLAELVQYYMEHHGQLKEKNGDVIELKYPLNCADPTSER

[5] = system: protein array of 97 human SH2 domains; assay: SH2 domain microarray; type: binding; conditions: peptide 0.5, 5.0, 50 nM
Procedure: (§1) The microarray experiment was conducted by the Protein Array and Analysis Core at the MD Anderson Cancer Center (University of Texas, USA), as previously described [Roth 2019]. Briefly, a library of SH2 domains [Huang 2008] was expressed as GST fusion in E. coli and purified on glutathione-sepharose beads. The domains were spotted onto nitrocellulose-coated glass slides (Oncyte Avid slides, Grace Bio-Labs) using a pin arrayer [Espejo 2002]. Each domain was spotted in duplicate.

N-SH2 domain of SHP1 = biological target: T2, N-SH2 domain of SHP1 (Homo sapiens, UniProt P29350); assay: SH2 domain microarray, SHP1; type: binding; conditions: peptide 0.5, 5.0, 50 nM
T2 construct: host or cells: E. coli
T2 sequence (P29350 4-100 limits assumed): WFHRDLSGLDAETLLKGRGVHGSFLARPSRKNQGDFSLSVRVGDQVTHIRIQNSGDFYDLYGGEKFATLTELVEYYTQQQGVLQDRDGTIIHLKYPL
Procedure: as §1

N-SH2 domain of SHP2 [6] = biological target: T1, N-SH2 domain of SHP2; assay: Fluorescence anisotropy displacement assay; type: binding; conditions: [CF-P9]=1.0 nM; [N-SH2]= 40 nM; relative to P9
[7] = system: T3, BTAM peptide (PTPNS1 bisphosphotyrosyl-containing motif, with 4 N-terminal G residues)
T3 sequence: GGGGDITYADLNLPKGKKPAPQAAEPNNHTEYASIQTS

[8] = system: T4, EGFR Y1016 phosphopeptide (VDADEpYLIPQQ)
T4 sequence: VDADEYLIPQQ

[9] = system: T5, GAB1 Y657 phosphopeptide (DKQVEpYLDLDL)
T5 sequence: DKQVEYLDLDL

P8 (LN-pY-IDLDL) = system: T6, P8 (LN-pY-IDLDL)
T6 sequence: LNYIDLDL

P8W5 (LN-pY-IDLDW) = system: T7, P8W5 (LN-pY-IDLDW)
T7 sequence: LNYIDLDW

[10] = system: T8, p190A/RhoGAP Y1105 phosphopeptide (EEENIpYSVPHD)
T8 sequence: EEENIYSVPHD

[11] = biological target: T9, N-SH2 domain of SHP2 (residues 2-111), recombinant (human, UniProt Q06124 2-111); assay: fluorescence anisotropy direct binding
T9 construct: range 2-111; Expressed in E. coli from pET-26b and purified on Ni-NTA
T9 sequence (looked up): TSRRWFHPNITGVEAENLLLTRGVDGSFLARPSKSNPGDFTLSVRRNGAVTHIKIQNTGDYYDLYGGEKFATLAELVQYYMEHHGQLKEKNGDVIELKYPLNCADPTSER
Procedure: For the binding assays, the requested peptide amount (1 nM or 0.1 nM) was diluted in buffer (HEPES 10 mM, NaCl 150 mM, EDTA 1 mM, TCEP 1 mM, fluorescence buffer henceforth) and its anisotropy signal was recorded. The peptide was then titrated with increasing protein amounts, until the anisotropy signal reached a plateau at its maximum value, or up to a protein concentration where protein aggregation and consequent light scattering affected the anisotropy values (usually above 1 µM). The measurements of CF-labeled peptides were carried out using an excitation wavelength of 470 nm and collecting the anisotropy values at an emission wavelength of 520 nm. […] For the Cy3-labeled peptides, excitation and emission wavelengths of 520 and 560 nm were used.

[12] = biological target: T9, N-SH2 domain of SHP2 (residues 2-111), …; assay: fluorescence anisotropy direct binding, labelled peptide titrated with protein
[13] = biological target: T10, N-SH2 domain of SHP1, GST fusion on the SH2 domain microarray (human, UniProt P29350 1-106); assay: SH2 domain microarray (GST fusions on nitrocellulose slides), Cy3 fluorescence
T10 construct: domain: N-SH2 domain; Array of 97 human SH2 domains; not shown: GST fusion partner
T10 sequence (looked up): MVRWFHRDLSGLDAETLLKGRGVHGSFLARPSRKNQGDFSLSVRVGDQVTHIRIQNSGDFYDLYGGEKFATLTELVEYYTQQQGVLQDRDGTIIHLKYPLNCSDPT

Kd [1]: 8.2 nM
Molecule: CF-P9E4W5 (CF-GLN-pY-IDLEW) (peptide)

fold lower affinity than for the N-SH2 domain [2]: 1000 fold
Kd [3]: 4200 nM
Kd [1]: 4.6 nM
Molecule: CF-P9W5 (CF-GLN-pY-IDLDW) (peptide)

Molecule: Cy3-GLN-pY-IDLDW [Cy3-P9W5]
Kd (N-SH2 domain of SHP2 [4]): 23 ± 2 nM
binding on SH2 domain array [5]: significant binding was observed only with the N-SH2 domain of SHP2
binding to N-SH2 domain of SHP1 (N-SH2 domain of SHP1): negligible

Molecule: N-pY-IDLDL (Ac-N[pY]IDLDL-NH2; SMILES CC[C@H](C)[C@H](NC(=O)[C@H](Cc1ccc(OP(=O)(O)O)cc1)NC(=O)[C@H](CC(N)=O)NC(C)=O)C(=O)N[C@@H](CC(=O)O)C(=O)N[C@@H](CC(C)C)C(=O)N[C@@H](CC(=O)O)C(=O)N[C@@H](CC(C)C)C(N)=O) [Peptide P7]
effect of sequence length on the binding affinity (N-SH2 domain of SHP2 [6]): drastic perturbation of complex stability

Molecule: SHP2Δ104 (SHP2 construct lacking the N-SH2 domain, residues 105-528)
dephosphorylation of the phosphopeptide (malachite green phosphate release) [7]: dephosphorylation was indeed observed, although to a lower extent than for other phosphopeptides
dephosphorylation of the phosphopeptide (malachite green phosphate release) [8]: dephosphorylation was indeed observed, although to a lower extent than for other phosphopeptides
dephosphorylation of the phosphopeptide (malachite green phosphate release) [9]: dephosphorylation was indeed observed, although to a lower extent than for other phosphopeptides
dephosphorylation of the phosphopeptide (malachite green phosphate release) (P8 (LN-pY-IDLDL)): dephosphorylation was indeed observed, although to a lower extent than for other phosphopeptides
dephosphorylation of the phosphopeptide (malachite green phosphate release) (P8W5 (LN-pY-IDLDW)): dephosphorylation was indeed observed, although to a lower extent than for other phosphopeptides
dephosphorylation of the phosphopeptide (malachite green phosphate release) [10]: dephosphorylation was indeed observed, although to a lower extent than for other phosphopeptides

fold lower affinity than the phosphorylated peptide CF-P9 [11]: ~100 fold
Kd [12]: 6600 nM
Molecule: {CF}-GLNYIDLDL-NH2 [CF-P9Y0 (CF-GLN-Y-IDLDL), unphosphorylated analog of the labeled IRS-1 pY1172 peptide]

Kd [12]: 53 nM
Molecule: {CF}-GLN[pY]IDLDL-NH2 [CF-P9 (CF-GLN-pY-IDLDL), fluorescently labeled IRS-1 pY1172 peptide analog]

Kd [1]: 23 nM
B1: Cy3-P9W5 (Cy3-GLN-pY-IDLDW) (peptide)
peptide: XGLNYIDLDW
modifications: phosphotyrosine (pY) at position 4; N-terminal Cyanine 3 carboxylic acid (Cy3); C-terminal amide
binding result [13]: no binding (tested: peptide at 0.5, 5.0 and 50 nM)
